Results taken from patent US20260078342A1.

Target: CD16 (FcγRIIIa/CD16a), high affinity variant with valine at amino acid 176, expressed on haNK003 cells (human) (UniProt P08637)
Assay: cell-based or functional assay

UniProt P08637, sequence (P08637 other isoform, or with tags, fused parts or gaps mutant limits assumed): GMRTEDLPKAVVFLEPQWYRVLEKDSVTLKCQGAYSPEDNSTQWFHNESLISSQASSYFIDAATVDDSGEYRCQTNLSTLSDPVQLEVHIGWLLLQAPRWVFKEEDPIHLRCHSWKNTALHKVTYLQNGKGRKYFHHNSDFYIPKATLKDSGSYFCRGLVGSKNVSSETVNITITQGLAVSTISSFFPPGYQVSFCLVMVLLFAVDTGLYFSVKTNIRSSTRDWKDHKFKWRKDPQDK

ADCC assay (specific lysis), haNK003 at 1:1 E:T Ratio with Rituxan (3.3 µg/mL) vs DOHH2: 52.8%
Substance: Rituximab (antibody)
